The record followed here is patent US20200317768A1 (published 2020).

Test [1] deals with T1, Human latent myostatin (human, UniProt O14793 25-266; O14793 267-375).
T1 construct: Biotinylated in the ELISAs; also called human myostatin latent form
T1 sequence 1: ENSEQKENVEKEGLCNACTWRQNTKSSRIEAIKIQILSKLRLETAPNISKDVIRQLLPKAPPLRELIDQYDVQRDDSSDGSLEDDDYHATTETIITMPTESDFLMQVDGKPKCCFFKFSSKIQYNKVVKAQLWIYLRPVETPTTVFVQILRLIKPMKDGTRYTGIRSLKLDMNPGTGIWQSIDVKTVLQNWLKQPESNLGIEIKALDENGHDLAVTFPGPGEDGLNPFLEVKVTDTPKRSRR
T1 sequence 2: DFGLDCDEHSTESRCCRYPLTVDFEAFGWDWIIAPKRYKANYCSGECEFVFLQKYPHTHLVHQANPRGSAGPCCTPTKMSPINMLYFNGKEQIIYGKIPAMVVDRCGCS
The test is described as follows: SPR (BIACORE), additional dissociation phase at pH5.8 after dissociation at pH7.4, Scrubber 2.0 fit. On the procedure:
Each amino acid in the CDRs was individually mutated to histidine using In-Fusion HD Cloning Kit (Clontech Inc, or Takara Bio company) according to the manufacturer's instructions. […] All histidine-substituted variants were evaluated by a modified BIACORE® assay as compared to that described above. Briefly, an additional dissociation phase at pH5.8 was integrated into the BIACORE® assay immediately after the dissociation phase at pH7.4. This is to assess the pH-dependent dissociation between antibody (Ab) and antigen (Ag) from the complexes formed at pH7.4 as opposed to the corresponding dissociation at pH5.8. The dissociation rate at pH5.8 buffer was determined by processing and fitting data using the Scrubber 2.0 (BioLogic Software) curve fitting software.
Antibodies with a combination of these mutations in the CDRs were then generated.
Background: SPR reads the build-up and loss of mass on a sensor chip optically.

In test [2] the target is T2, Mouse latent myostatin (mouse, UniProt O08689 26-267; O08689 268-376).
T2 construct: Latent form = complex of two propeptides and the mature dimer
T2 sequence 1: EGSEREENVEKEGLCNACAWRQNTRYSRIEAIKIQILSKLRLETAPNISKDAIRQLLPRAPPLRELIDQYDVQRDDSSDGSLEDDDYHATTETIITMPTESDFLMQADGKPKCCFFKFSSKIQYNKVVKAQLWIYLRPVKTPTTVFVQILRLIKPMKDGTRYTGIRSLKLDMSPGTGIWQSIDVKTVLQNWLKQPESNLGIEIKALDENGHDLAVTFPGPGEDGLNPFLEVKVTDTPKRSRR
T2 sequence 2: T1 sequence 2
The test is described as follows: SPR (BIACORE T200) 37C, pH 5.8, antibody captured by ProA/G. On the procedure:
(§1) ProA/G (Pierce) was immobilized onto all flow cells of a CM4 chip using an amine coupling kit (GE Healthcare). All antibodies and analytes were prepared in ACES pH7.4 or pH5.8 buffer containing 20 mM ACES, 150 mM NaCl, 1.2 mM CaCl₂, 0.05% TWEEN®) 20, 0.005% NaN₃. […] Human, cyno, and mouse latent myostatin was injected at 3.125 to 50 nM prepared by two-fold serial dilution, followed by dissociation. The sensor surface was regenerated each cycle with 10 mM Glycine HCl pH1.5. Binding affinity was determined by processing and fitting the data to a 1:1 binding model using BIACORE® T200 Evaluation software, version 2.0 (GE Healthcare).

In test [3] the target is T3, Human latent myostatin (human, UniProt O14793 25-266; O14793 267-375).
T3 construct: also called human myostatin latent form
T3 sequence 1: T1 sequence 1
T3 sequence 2: T1 sequence 2
Described as above. On the procedure: as §1

The target of test [4] is T4, Cynomolgus monkey latent myostatin (cynomolgus monkey, UniProt Q95J86 25-266; Q95J86 267-375).
T4 construct: Latent form = complex of two propeptides and the mature dimer; also called Cyno latent myostatin
T4 sequence 1: T1 sequence 1 with V52A
T4 sequence 2: T1 sequence 2
Described as above. On the procedure:
as §1

Test [5] addresses T2, Mouse latent myostatin. Briefly: SPR 37C; KD pH 5.8 / KD pH 7.4. On the procedure:
as §1

Test [6] has as its target T3, Human latent myostatin. Briefly: SPR 37C; KD pH 5.8 / KD pH 7.4. On the procedure: as §1
Test [7] deals with T4, Cynomolgus monkey latent myostatin. Briefly: SPR 37C; KD pH 5.8 / KD pH 7.4. On the procedure: as §1
The target in test [8] is T2, Mouse latent myostatin. The test is described as follows: SPR (BIACORE T200) 37C, pH 7.4, antibody captured by ProA/G. On the procedure: as §1
The target of test [9] is T3, Human latent myostatin. The test is described as above. On the procedure: as §1
Test [10] has as its target T4, Cynomolgus monkey latent myostatin. Described as above. On the procedure: as §1

Residue numbers refer to the chain shown, from its start.

B1: Ab003 (M103205H009 / M103202L000) (antibody, human IgG1, kappa, V domains shown)
VH: QVTLKESGPVLVKPTETLTLTCTVSGIDLSSYDISWVRQAPGKGLEWVGIISHAGSTYYASWAKGRLTISKDTSKNQVVLTMTNMDPVDTATYYCARGVPAYSTGGDLWGQGTLVTVSS
VL: DIVMTQSPATLSLSPGERATLSCQSSQSVYDNNWLSWFQQKPGQPPKLLIYWASTLASGVPSRFSGSGSGTDFTLTISSLQPEDAATYYCAGGYGGGLYAFGQGTKVEIKR
notes: Histidine-substituted variant of MS1032LO00-SG1
What is called koff is a measure of how fast the partners let go of each other. Consider B1, for which, in the test with Human latent myostatin [1], the koff was found to be 0.00088 s⁻¹.

B2: MS_M103240H1246-SG1/M103202L1045-SK1 (antibody, human IgG1, kappa, V domains shown)
VH: QVQLVESGGGLVQPGGSLRLSCAVSGIDLSHEDISWVRQAPGKGLEWVSIISYAGSKYYASWAKGRLTISKDTSKNQVVLTMTNMDPVDTATYYCARGVPAYSHGGDLWGQGTLVTVSS
VL: B1 VL with Q24T, S25T, D31H, N32E, S58Y, L98R
notes: also called MS1032LO25-SG1
A word on the Kd: it is a measure of binding affinity in units of concentration. Consider B2, for which the Kd in the test with Mouse latent myostatin [2] came out at 9.88 nM; with Human latent myostatin [3], 25.5 nM; in test [4] it was 14.1 nM; with Mouse latent myostatin [8], 0.259 nM; with Human latent myostatin [9], 0.276 nM; in [10], 0.34 nM. Further, the “ratio of KD at pH 5.8/pH 7.4” value came to 38 with Mouse latent myostatin [5], 92 with Human latent myostatin [6] and 41 in [7].

B3: Ab005 (M103205H028 / M103202L000) (antibody, human IgG1, kappa, V domains shown)
VH: B1 VH with H53Y, T104H
VL: B1 VL
notes: as for B1
In the case of B3, in the test with Human latent myostatin [1], the koff was 7.63e-05 s⁻¹.

B4: Ab006 (M103205H000 / M103202L008) (antibody, human IgG1, kappa, V domains shown)
VH: B1 VH with H53Y
VL: B1 VL with D31H
notes: as for B1
For the molecule B4, in the test with Human latent myostatin [1], the koff was 8.58e-05 s⁻¹.

B5: Ab007 (M103205H028 / M103202L008) (antibody, human IgG1, kappa, V domains shown)
VH: B1 VH with H53Y, T104H
VL: B1 VL with D31H
notes: as for B1
As for B5, the koff with Human latent myostatin [1] worked out at 0.000415 s⁻¹.

B6: Ab004 (M103205H026 / M103202L000) (antibody, human IgG1, kappa, V domains shown)
VH: B1 VH with H53Y, Y102H
VL: B1 VL
notes: as for B1
Turning to B6, the koff with Human latent myostatin [1] came to 0.000186 s⁻¹.
